Experimental data reported in publication PMC11252000, “MFSD1 with its accessory subunit GLMP functions as a general dipeptide uniporter in lysosomes” (Nature Cell Biology, 2024).
Where a SMILES comes first, the peptide text is derived from it.

Legend:
[1] = molecular target: T1, MFSD1–GLMP oocytes (MFSD1L11A/L12A-EmGFP + GLMPY400A-mKate2) (Mus musculus, UniProt Q9DC37, L11A/L12A); assay: TEVC competition with Lys–Ala current in oocytes; assay type: cell-based; conditions: read-out: % inhibition at 20 mM
T1 construct: heterodimer at plasma membrane of Xenopus laevis oocytes; lysosomal sorting mutants; EmGFP and mKate2 fusions; with Glycosylated lysosomal membrane protein
T1 sequence (Q9DC37 1-464 L11A/L12A): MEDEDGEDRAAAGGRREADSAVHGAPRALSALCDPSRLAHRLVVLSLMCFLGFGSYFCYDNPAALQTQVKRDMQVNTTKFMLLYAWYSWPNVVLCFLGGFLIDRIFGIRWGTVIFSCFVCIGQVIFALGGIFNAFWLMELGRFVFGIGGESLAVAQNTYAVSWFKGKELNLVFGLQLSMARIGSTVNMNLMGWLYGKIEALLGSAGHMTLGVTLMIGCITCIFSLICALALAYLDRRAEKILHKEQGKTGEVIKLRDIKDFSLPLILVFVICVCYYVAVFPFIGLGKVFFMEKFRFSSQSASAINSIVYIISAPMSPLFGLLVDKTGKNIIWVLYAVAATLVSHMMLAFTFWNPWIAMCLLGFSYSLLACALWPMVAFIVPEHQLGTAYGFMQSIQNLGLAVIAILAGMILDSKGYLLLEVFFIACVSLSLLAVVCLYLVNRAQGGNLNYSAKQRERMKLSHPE
T1 sequence (Q9JHJ3 36-404 Y400A partner): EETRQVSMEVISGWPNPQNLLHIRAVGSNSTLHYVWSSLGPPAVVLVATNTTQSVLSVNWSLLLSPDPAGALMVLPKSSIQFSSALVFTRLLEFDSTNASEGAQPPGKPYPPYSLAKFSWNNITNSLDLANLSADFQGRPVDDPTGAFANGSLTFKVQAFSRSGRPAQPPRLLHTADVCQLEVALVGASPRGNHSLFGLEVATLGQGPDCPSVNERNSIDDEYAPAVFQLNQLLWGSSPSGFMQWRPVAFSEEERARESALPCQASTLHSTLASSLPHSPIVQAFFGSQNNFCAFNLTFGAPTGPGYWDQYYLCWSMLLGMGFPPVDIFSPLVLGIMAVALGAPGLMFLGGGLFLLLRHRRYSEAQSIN

[2] = molecular target: T2, MFSD1 (MFSD1WT, mmMFSD1, MFSD1-strep) (Mus musculus, UniProt Q9DC37, Y56A); assay: proteoliposome uptake, pyranine fluorescence; assay type: biochemical; conditions: pH 6.8, 22 °C, valinomycin; 2.5 mM peptide
T2 construct: full length; N-terminal Twin-Strep-tag + HRV 3C site; Expi293F; purified in DDM/CHS; liposomes POPE:POPG:CHS for transport
T2 sequence (Q9DC37 1-464 Y56A): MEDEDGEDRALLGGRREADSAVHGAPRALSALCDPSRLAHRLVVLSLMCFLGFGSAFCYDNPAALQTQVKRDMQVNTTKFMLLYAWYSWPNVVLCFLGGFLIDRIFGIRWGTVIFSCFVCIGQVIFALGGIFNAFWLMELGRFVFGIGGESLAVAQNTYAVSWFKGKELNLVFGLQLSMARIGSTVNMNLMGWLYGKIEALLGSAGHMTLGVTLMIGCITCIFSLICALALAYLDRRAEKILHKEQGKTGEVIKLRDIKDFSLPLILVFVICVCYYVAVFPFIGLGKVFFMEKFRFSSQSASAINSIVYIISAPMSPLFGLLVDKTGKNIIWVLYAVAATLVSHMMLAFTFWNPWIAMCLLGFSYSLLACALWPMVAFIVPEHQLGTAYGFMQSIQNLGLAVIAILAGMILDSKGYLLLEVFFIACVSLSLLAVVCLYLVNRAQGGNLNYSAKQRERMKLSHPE

[3] = molecular target: T3, MFSD1 (MFSD1WT, mmMFSD1, MFSD1-strep) (Mus musculus, UniProt Q9DC37); assay: nanoDSF thermal shift titration; assay type: binding
T3 construct: full length; N-terminal Twin-Strep-tag + HRV 3C site; Expi293F; purified in DDM/CHS; liposomes POPE:POPG:CHS for transport
T3 sequence (Q9DC37 1-464): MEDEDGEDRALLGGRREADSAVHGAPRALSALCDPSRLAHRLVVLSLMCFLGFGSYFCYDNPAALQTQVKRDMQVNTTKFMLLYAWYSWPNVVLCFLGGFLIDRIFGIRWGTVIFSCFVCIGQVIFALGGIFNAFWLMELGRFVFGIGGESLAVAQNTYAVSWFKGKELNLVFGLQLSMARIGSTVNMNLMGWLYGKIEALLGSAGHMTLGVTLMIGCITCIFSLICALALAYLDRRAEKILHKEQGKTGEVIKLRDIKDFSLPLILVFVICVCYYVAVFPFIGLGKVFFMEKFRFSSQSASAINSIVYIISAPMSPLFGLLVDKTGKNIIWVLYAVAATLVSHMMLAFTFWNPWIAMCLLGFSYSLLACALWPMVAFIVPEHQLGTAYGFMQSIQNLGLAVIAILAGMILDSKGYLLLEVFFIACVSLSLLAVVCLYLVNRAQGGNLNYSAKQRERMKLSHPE

[4] = molecular target: T4, GLMP–MFSD1 (GLMP–MFSD1-strep fusion) (Mus musculus, UniProt Q9DC37); assay: cryo-EM, […] Å map with extra density; assay type: binding; conditions: 20 mM His–Ala; central cavity, outward-open; peptide not unambiguously placed; model 8R8Q (called apo) built in this map
T4 construct: single-chain fusion GLMP-GSAGSAAGSGEF-MFSD1; C-terminal 3C site + Twin-Strep-tag; Expi293F; DDM/CHS; with Glycosylated lysosomal membrane protein
T4 sequence (Q9DC37 1-464): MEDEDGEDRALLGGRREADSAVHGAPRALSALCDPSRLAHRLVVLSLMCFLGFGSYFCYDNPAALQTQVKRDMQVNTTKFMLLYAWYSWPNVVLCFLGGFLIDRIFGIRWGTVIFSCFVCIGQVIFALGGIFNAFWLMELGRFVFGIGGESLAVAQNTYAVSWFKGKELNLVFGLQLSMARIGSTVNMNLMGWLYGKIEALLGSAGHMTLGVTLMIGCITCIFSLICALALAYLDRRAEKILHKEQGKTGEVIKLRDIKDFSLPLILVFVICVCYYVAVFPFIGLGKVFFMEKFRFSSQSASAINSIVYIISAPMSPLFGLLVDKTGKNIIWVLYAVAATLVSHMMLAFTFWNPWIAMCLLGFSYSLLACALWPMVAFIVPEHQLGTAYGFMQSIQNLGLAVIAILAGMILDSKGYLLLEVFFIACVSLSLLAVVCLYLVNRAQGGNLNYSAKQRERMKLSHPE
T4 sequence (Q9JHJ3 36-404 partner): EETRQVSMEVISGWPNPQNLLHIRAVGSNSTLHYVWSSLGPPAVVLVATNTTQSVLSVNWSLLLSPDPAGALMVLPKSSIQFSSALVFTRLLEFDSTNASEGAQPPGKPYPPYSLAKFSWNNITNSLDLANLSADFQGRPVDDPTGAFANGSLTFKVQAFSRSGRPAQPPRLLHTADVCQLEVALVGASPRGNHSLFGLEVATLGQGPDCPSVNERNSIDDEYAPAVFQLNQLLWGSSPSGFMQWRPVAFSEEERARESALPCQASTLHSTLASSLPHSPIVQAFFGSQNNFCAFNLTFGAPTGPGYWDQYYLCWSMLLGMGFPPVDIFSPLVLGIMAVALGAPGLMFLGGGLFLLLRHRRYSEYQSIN

[5] = substrate: C[C@H](NC(=O)[C@@H](N)CCCCN)C(=O)O; assay: TEVC current in Xenopus oocytes; assay type: cell-based, Mus musculus; conditions: pH 5.0, −40 mV, room temperature (20 °C), hydrobromide salt
[6] = substrate: CC(C)C[C@H](N)C(=O)N[C@@H](C)C(=O)O; assay: isotope tracer uptake, LC–MS/MS of Leu(d3) in oocytes; assay type: cell-based, Mus musculus; conditions: pH 5.0, room temperature, labelled compound, hydrochloride salt, Extended Data Fig. 4a legend gives 4.4 mM for the displayed fit
[7] = substrate: N[C@@H](Cc1c[nH]cn1)C(=O)N[C@@H](CO)C(=O)O; assay: proteoliposome uptake, pyranine fluorescence; assay type: biochemical, Mus musculus; conditions: pH 6.8, 22 °C, valinomycin-driven membrane potential approx. −100 mV
[8] = substrate: C[C@H](NC(=O)[C@@H](N)Cc1c[nH]cn1)C(=O)O; assay: proteoliposome uptake, pyranine fluorescence; assay type: biochemical, Mus musculus; conditions: pH 6.8, 22 °C, valinomycin-driven membrane potential approx. −100 mV
[9] = molecular target: T5, MFSD1 as it stands in the GLMP–MFSD1 fusion construct (mouse, UniProt Q9DC37 1-464); assay: cryo-EM structure; purified GLMP–MFSD1 fusion in 20 mM HEPES pH 7.5, 150 mM NaCl, 0.015% DDM, 0.0015% CHS; apo (4.2 Å) and dialysed against 20 mM His–Ala (4.1 Å); outward-open conformation; conditions: both partners purified
T5 construct: mouse MFSD1, UniProt Q9DC37; C-terminal part of the fusion m3; written apart for the pair row of the structure; also called MFSD1out; source: Expi293F, transiently transfected, purified as part of GLMP–MFSD1-strep; not shown: Twin-Strep, C-terminal, kept
T5 sequence: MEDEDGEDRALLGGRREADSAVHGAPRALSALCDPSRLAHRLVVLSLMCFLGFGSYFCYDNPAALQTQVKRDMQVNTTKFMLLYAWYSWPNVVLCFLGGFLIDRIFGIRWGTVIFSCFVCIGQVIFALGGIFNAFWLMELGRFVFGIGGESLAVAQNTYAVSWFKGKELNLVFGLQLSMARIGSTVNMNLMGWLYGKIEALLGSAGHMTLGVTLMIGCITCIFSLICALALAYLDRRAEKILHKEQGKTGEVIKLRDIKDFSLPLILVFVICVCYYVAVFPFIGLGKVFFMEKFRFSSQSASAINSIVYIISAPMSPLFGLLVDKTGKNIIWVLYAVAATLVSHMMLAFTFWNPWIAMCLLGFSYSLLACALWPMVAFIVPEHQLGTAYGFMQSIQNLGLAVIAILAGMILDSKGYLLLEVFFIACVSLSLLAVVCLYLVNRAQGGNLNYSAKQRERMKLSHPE

Molecule: C[C@H](N)C(=O)N[C@@H](C)C(=O)O [Ala–Ala] (H-Ala-Ala-OH)
- inhibition at 20000 µM [1]: 66 ± 3%

Molecule: C[C@H](NC(=O)[C@@H](N)Cc1c[nH]cn1)C(=O)O [His–Ala] (H-His-Ala-OH)
- uptake rate vs MFSD1WT [2]: ~ 50 % reduction
- Kd [3]: 6.7 ± 0.55 mM
- cryo-EM, 4.1 Å map with extra density [4]: revealed an additional density for GLMP–MFSD1His–Ala

B1: MFSD1–GLMP oocytes (MFSD1L11A/L12A-EmGFP + GLMPY400A-mKate2) (Mus musculus; L11A/L12A) (protein)
chain: MEDEDGEDRAAAGGRREADSAVHGAPRALSALCDPSRLAHRLVVLSLMCFLGFGSYFCYDNPAALQTQVKRDMQVNTTKFMLLYAWYSWPNVVLCFLGGFLIDRIFGIRWGTVIFSCFVCIGQVIFALGGIFNAFWLMELGRFVFGIGGESLAVAQNTYAVSWFKGKELNLVFGLQLSMARIGSTVNMNLMGWLYGKIEALLGSAGHMTLGVTLMIGCITCIFSLICALALAYLDRRAEKILHKEQGKTGEVIKLRDIKDFSLPLILVFVICVCYYVAVFPFIGLGKVFFMEKFRFSSQSASAINSIVYIISAPMSPLFGLLVDKTGKNIIWVLYAVAATLVSHMMLAFTFWNPWIAMCLLGFSYSLLACALWPMVAFIVPEHQLGTAYGFMQSIQNLGLAVIAILAGMILDSKGYLLLEVFFIACVSLSLLAVVCLYLVNRAQGGNLNYSAKQRERMKLSHPE
notes: heterodimer at plasma membrane of Xenopus laevis oocytes; lysosomal sorting mutants; EmGFP and mKate2 fusions; with Glycosylated lysosomal membrane protein
- Km [5]: 2.6 ± 0.4 mM
- Km [6]: 5.6 ± 1.6 mM

B2: MFSD1 (MFSD1WT, mmMFSD1, MFSD1-strep) (Mus musculus) (protein)
chain: MEDEDGEDRALLGGRREADSAVHGAPRALSALCDPSRLAHRLVVLSLMCFLGFGSYFCYDNPAALQTQVKRDMQVNTTKFMLLYAWYSWPNVVLCFLGGFLIDRIFGIRWGTVIFSCFVCIGQVIFALGGIFNAFWLMELGRFVFGIGGESLAVAQNTYAVSWFKGKELNLVFGLQLSMARIGSTVNMNLMGWLYGKIEALLGSAGHMTLGVTLMIGCITCIFSLICALALAYLDRRAEKILHKEQGKTGEVIKLRDIKDFSLPLILVFVICVCYYVAVFPFIGLGKVFFMEKFRFSSQSASAINSIVYIISAPMSPLFGLLVDKTGKNIIWVLYAVAATLVSHMMLAFTFWNPWIAMCLLGFSYSLLACALWPMVAFIVPEHQLGTAYGFMQSIQNLGLAVIAILAGMILDSKGYLLLEVFFIACVSLSLLAVVCLYLVNRAQGGNLNYSAKQRERMKLSHPE
notes: full length; N-terminal Twin-Strep-tag + HRV 3C site; Expi293F; purified in DDM/CHS; liposomes POPE:POPG:CHS for transport
- Km [7]: 24.4 ± 13.5 µM
- Km [8]: 119.1 ± 59.3 µM

B3: GLMP as it stands in the GLMP–MFSD1 fusion construct (natural protein, mouse, UniProt Q9JHJ3 36-404, looked up)
chain: EETRQVSMEVISGWPNPQNLLHIRAVGSNSTLHYVWSSLGPPAVVLVATNTTQSVLSVNWSLLLSPDPAGALMVLPKSSIQFSSALVFTRLLEFDSTNASEGAQPPGKPYPPYSLAKFSWNNITNSLDLANLSADFQGRPVDDPTGAFANGSLTFKVQAFSRSGRPAQPPRLLHTADVCQLEVALVGASPRGNHSLFGLEVATLGQGPDCPSVNERNSIDDEYAPAVFQLNQLLWGSSPSGFMQWRPVAFSEEERARESALPCQASTLHSTLASSLPHSPIVQAFFGSQNNFCAFNLTFGAPTGPGYWDQYYLCWSMLLGMGFPPVDIFSPLVLGIMAVALGAPGLMFLGGGLFLLLRHRRYSEYQSIN
modifications: N-glycans on Asn85, Asn94, Asn157, Asn228 and Asn331
notes: mouse GLMP, UniProt Q9JHJ3; N-terminal part of the fusion m3; written apart for the pair row of the structure; source: Expi293F, transiently transfected, purified as part of GLMP–MFSD1-strep
- binding result [9]: binds
